B1: F1*; the commonest letter at each place (parent)
chain: GAGACCGCAACTGAAAAGTTGTTATCACTTGTCGTAAGACACTTTGGATGGGTTGAAGTTCTGCACGTAGAAGCAAAAGGC

Variants of: B1
Experiment: fraction ligated after 30 min (ligated reads / total reads); higher = more ligase activity
Details: with F1*sub RNA substrate (template-directed ligation), 42 °C
How it was run: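 Ribozyme variants were transcribed with T7 from PCR-amplified oligo-pool templates and gel-purified. Ligated and unligated bands, separated on gel, were reverse transcribed with barcoded primers and sequenced on a MiSeq, with core bases filtered at quality ≥20. Fraction ligated per variant was computed as ligated reads divided by total reads.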

Variant	fraction ligated
GAGACCGCAACTGAAAAGTTGTTATCACTTGTCGTAAGACACCATGGATGGGTTGAAGTTCTGCACGTAGAAGCAAAAGGC	0.833
GAGACCGCAACTGAAAAGTTGTTATCACTTGTCGTAAGACACCCTGGATGGGTTGAAGTTCTGCACGTAGAAGCAAAAGGC	0.781
GAGACCGCAACTGAAAAGTTGTTATCACTTGTCGTAAGACACCGTGGATGGGTTGAAGTTCTGCACGTAGAAGCAAAAGGC	0.836
GAGACCGCAACTGAAAAGTTGTTATCACTTGTCGTAAGACACCTAGGATGGGTTGAAGTTCTGCACGTAGAAGCAAAAGGC	0.574
GAGACCGCAACTGAAAAGTTGTTATCACTTGTCGTAAGACACCTCGGATGGGTTGAAGTTCTGCACGTAGAAGCAAAAGGC	0.584
GAGACCGCAACTGAAAAGTTGTTATCACTTGTCGTAAGACACCTGGGATGGGTTGAAGTTCTGCACGTAGAAGCAAAAGGC	0.257
GAGACCGCAACTGAAAAGTTGTTATCACTTGTCGTAAGACACCTTGGAAGGGTTGAAGTTCTGCACGTAGAAGCAAAAGGC	0.638
GAGACCGCAACTGAAAAGTTGTTATCACTTGTCGTAAGACACCTTGGACGGGTTGAAGTTCTGCACGTAGAAGCAAAAGGC	0.427
GAGACCGCAACTGAAAAGTTGTTATCACTTGTCGTAAGACACCTTGGAGGGGTTGAAGTTCTGCACGTAGAAGCAAAAGGC	0.665
GAGACCGCAACTGAAAAGTTGTTATCACTTGTCGTAAGACACGTTGGATGGGTTGAAGTTCTGCACGTAGAAGCAAAAGGC	0.822
GAGACCGCAACTGAAAAGTTGTTATCACTTGTCGTAAGACACGTTGGCTGGGTTGAAGTTCTGCACGTAGAAGCAAAAGGC	0.625
GAGACCGCAACTGAAAAGTTGTTATCACTTGTCGTAAGACACGTTGGGTGGGTTGAAGTTCTGCACGTAGAAGCAAAAGGC	0.78
GAGACCGCAACTGAAAAGTTGTTATCACTTGTCGTAAGACACGTTGGTTGGGTTGAAGTTCTGCACGTAGAAGCAAAAGGC	0.668
GAGACCGCAACTGAAAAGTTGTTATCACTTGTCGTAAGACACGTTGGATGGGTTGCAGTTCTGCACGTAGAAGCAAAAGGC	0.713
GAGACCGCAACTGAAAAGTTGTTATCACTTGTCGTAAGACACGTTGGATGGGTTGGAGTTCTGCACGTAGAAGCAAAAGGC	0.717
GAGACCGCAACTGAAAAGTTGTTATCACTTGTCGTAAGACACGTTGGATGGGTTGTAGTTCTGCACGTAGAAGCAAAAGGC	0.764
GAGACCGCAACTGAAAAGTTGTTATCACTTGTCGTAAGACACGTTGGATGGGTTGACGTTCTGCACGTAGAAGCAAAAGGC	0.809

Variant	fraction ligated
GAGACCGCAACTGAAAAGTTGTTATCACTTGTCGTAAGACACGTTGGATGGGTTGAGGTTCTGCACGTAGAAGCAAAAGGC	0.803
GAGACCGCAACTGAAAAGTTGTTATCACTTGTCGTAAGACACGTTGGATGGGTTGATGTTCTGCACGTAGAAGCAAAAGGC	0.799
GAGACCGCAACTGAAAAGTTGTTATCACTTGTCGTAAGACACGTTAGATGGGTTGAAGTTCTGCACGTAGAAGCAAAAGGC	0.808
GAGACCGCAACTGAAAAGTTGTTATCACTTGTCGTAAGACACGTTCGATGGGTTGAAGTTCTGCACGTAGAAGCAAAAGGC	0.783
GAGACCGCAACTGAAAAGTTGTTATCACTTGTCGTAAGACACGTTTGATGGGTTGAAGTTCTGCACGTAGAAGCAAAAGGC	0.787
GAGACCGCAACTGAAAAGTTGTTATCACTTGTCGTAAGACACGTTGAATGGGTTGAAGTTCTGCACGTAGAAGCAAAAGGC	0.802
GAGACCGCAACTGAAAAGTTGTTATCACTTGTCGTAAGACACGTTGCATGGGTTGAAGTTCTGCACGTAGAAGCAAAAGGC	0.447
GAGACCGCAACTGAAAAGTTGTTATCACTTGTCGTAAGACACGTTGTATGGGTTGAAGTTCTGCACGTAGAAGCAAAAGGC	0.52
GAGACCGCAACTGAAAAGTTGTTATCACTTGTCGTAAGACACGTTGGATAGGTTGAAGTTCTGCACGTAGAAGCAAAAGGC	0.311
GAGACCGCAACTGAAAAGTTGTTATCACTTGTCGTAAGACACGTTGGATCGGTTGAAGTTCTGCACGTAGAAGCAAAAGGC	0.273
GAGACCGCAACTGAAAAGTTGTTATCACTTGTCGTAAGACACGTTGGATTGGTTGAAGTTCTGCACGTAGAAGCAAAAGGC	0.561
GAGACCGCAACTGAAAAGTTGTTATCACTTGTCGTAAGACACGTTGGATGGGTTAAAGTTCTGCACGTAGAAGCAAAAGGC	0.801
GAGACCGCAACTGAAAAGTTGTTATCACTTGTCGTAAGACACGTTGGATGGGTTCAAGTTCTGCACGTAGAAGCAAAAGGC	0.247
GAGACCGCAACTGAAAAGTTGTTATCACTTGTCGTAAGACACGTTGGATGGGTTTAAGTTCTGCACGTAGAAGCAAAAGGC	0.765
GAGACCGCAACTGAAAAGTTGTTATCACTTGTCGTAAGACACGATGGATGGGTTGAAGTTCTGCACGTAGAAGCAAAAGGC	0.808
GAGACCGCAACTGAAAAGTTGTTATCACTTGTCGTAAGACACGCTGGATGGGTTGAAGTTCTGCACGTAGAAGCAAAAGGC	0.809
GAGACCGCAACTGAAAAGTTGTTATCACTTGTCGTAAGACACGGTGGATGGGTTGAAGTTCTGCACGTAGAAGCAAAAGGC	0.809

Source: the supplement of paper PMC6755084
